Test results as given in patent publication US20070172423A1, “Composition and method for modulating vasculogenesis for angiogenesis” (priority 1998, published 2007).

What was measured:
[1] = test system: human bone marrow-derived AC133+CD34+ cells; assay: Human bone marrow cell adherence and differentiation assay; type: cell-based; conditions: 50 ng/ml
Description: Enriched human BM derived AC133+CD34+ cells (Clonetics) at 10^5/ml were cultured for 3 days in HPGM (Clonetics) in a 6-well plate (Becton Dickinson). Cells were then seeded in collagen coated 12-well plates in EBM (Clonetics) medium containing 4% FCS and VEGF165 (R&D Systems) or PDGF-CC (50 ng/ml each). Growth factors were added every two days and media were refreshed at 75% every four days. For adherence assay, 2.5×10^4 of non-adherent cells/ml were cultured in the same condition on chamber slides coated with collagen, or in 96-well plate coated with 0.3% gelatin in PBS. Cells were then washed three times with PBS, fixed and stained with May-Grünwald Giemsa (Sigma) after two weeks of culture on chamber slides (Becton Dickinson). The number of viable cells was estimated by ATP quantification using cellTiter-glo luminescent cell viability assay (Promega) according to the manufacturer's instructions. For cell surface marker staining, cells (2×10^4/well) cultured on collagen-coated culture slides for two or four weeks were fixed (45 min, 25° C.) and permeabilized (45 min, 25° C.) using a Intrastain Kit (DAKO), and then labeled with CD31-FITC (Becton Dickinson), CD144-FITC (Pharmingen), CD34-FITC (Becton Dickinson) or SMC-Actin CY3 (Sigma). Single or double-labeled cells were analyzed using laser confocal immunofluorescence microscopy.
Upon stimulation by growth factors or cytokines, bone marrow stem/progenitor cells can differentiate into ECs and SMCs and thereby contribute to angio/arteriogenesis (Orlic et al., Nature, 2001 410:701-5; Kawamoto et al., Circulation, 2001 103:634-7; Asahara et al., Circ Res, 1999 85:221-8). The potential role of PDGF-CC in the differentiation of bone marrow progenitors into vascular cells has, however, not been investigated thus far. We therefore cultured human bone marrow-derived AC133^+CD34^+ cells—a population enriched for stem/progenitor cells (Miraglia et al., Blood, 1997 90:5013-21; Yu et al., J Biol Chem, 2002 277:20711-6; Donnelly et al., Leuk Lymphoma, 2001 40:221-34)—and stimulated them with PDGF-CC, using VEGF as a control (50 ng/ml each).

ischemic myocardium = assay: Myocardial ischemia mouse model, Example 18
Description: Acute myocardial ischemia and hind limb ischemia mouse models were performed as previously described (Luttun et al., Nat Med, 2002 1:1; Heymans et al., Nat Med, 1999 5:1135-42). Subcutaneously implanted osmotic minipumps (Alzet, type 2001) were used for continuous protein delivery for 7 days. Human PDGF-CC core domain protein was produced as described (Li et al., Nat Cell Biol, 2000 2:302-309). Fluorescent or color dye microspheres (yellow, 15 μm, Molecular Probes) were administered after maximal vasodilatation (sodium nitroprusside, 50 ng/ml, Sigma) for blood flow measurement, and flow was calculated as described (Carmeliet et al., Nat Med, 1999 5:495-502). For histology, the hearts were harvested seven days after LAD ligation, and sectioned longitudinally (6 μm). Infarcted areas were morphologically inspected after immunohistochemistry staining using thrombomodulin (rabbit anti-TM, for all vessels) and smooth muscle alpha-actin (mouse anti-SMA, for mature SMC covered vessels, Dako), and vessel densities calculated. Gastrocnemius muscles after femoral artery ligation were sectioned transversally and analysed after H&E or immunostainings with the EC marker CD31 (PECAM, rat anti-CD31, Pharmingen). Vessel densities and tissue necrosis/regeneration in the gastrocnemius muscle were analyzed morphometrically using the KS300 image analysis soft ware (Zeiss). Remodeling of collateral vessels in the upper hindlimb after femoral ligation was quantified as reported (Luttun et al., Nat Med, 2002 1:1).
A previously established mouse model of myocardial ischemia was used to assess whether PDGF-CC is capable of stimulating the revascularization of ischemic myocardium. After coronary ligation, new vessels revascularize the ischemic core from its surrounding border region. For PDGF-CC to stimulate new vessel growth, its receptor, PDGFR-α, should be expressed in the heart. […] To examine whether PDGF-CC could stimulate revascularization of the ischemic myocardium, we delivered, using a minipump, continuously over one week after coronary ligation, recombinant human PDGF-CC core domain protein, which is known to bind and activate PDGFR-α (Li et al., Nat Cell Biol, 2000 2:302-309). […] After seven days, angiogenesis was quantified by counting the number of endothelial cell (EC)-lined vessels in the ischemic area after immunolabeling with thrombomodulin (TM). Vessel maturation (arteriogenesis) was evaluated by counting the arterioles, immunoreactive for smooth muscle cell α-actin (SMA).

PDGFR-α = target: T1, PDGFR-α (Mus musculus, UniProt P26618); assay: PDGFR-α activation in infarct border region (immunoprecipitation, pTyr Western blot); type: in vivo; conditions: compared to control, after coronary ligation
T1 construct: from tissue; host or cells: mouse heart, infarct border region

[2] = 4.5 μg/day, minipump, seven days

T1 sequence (P26618 25-1089): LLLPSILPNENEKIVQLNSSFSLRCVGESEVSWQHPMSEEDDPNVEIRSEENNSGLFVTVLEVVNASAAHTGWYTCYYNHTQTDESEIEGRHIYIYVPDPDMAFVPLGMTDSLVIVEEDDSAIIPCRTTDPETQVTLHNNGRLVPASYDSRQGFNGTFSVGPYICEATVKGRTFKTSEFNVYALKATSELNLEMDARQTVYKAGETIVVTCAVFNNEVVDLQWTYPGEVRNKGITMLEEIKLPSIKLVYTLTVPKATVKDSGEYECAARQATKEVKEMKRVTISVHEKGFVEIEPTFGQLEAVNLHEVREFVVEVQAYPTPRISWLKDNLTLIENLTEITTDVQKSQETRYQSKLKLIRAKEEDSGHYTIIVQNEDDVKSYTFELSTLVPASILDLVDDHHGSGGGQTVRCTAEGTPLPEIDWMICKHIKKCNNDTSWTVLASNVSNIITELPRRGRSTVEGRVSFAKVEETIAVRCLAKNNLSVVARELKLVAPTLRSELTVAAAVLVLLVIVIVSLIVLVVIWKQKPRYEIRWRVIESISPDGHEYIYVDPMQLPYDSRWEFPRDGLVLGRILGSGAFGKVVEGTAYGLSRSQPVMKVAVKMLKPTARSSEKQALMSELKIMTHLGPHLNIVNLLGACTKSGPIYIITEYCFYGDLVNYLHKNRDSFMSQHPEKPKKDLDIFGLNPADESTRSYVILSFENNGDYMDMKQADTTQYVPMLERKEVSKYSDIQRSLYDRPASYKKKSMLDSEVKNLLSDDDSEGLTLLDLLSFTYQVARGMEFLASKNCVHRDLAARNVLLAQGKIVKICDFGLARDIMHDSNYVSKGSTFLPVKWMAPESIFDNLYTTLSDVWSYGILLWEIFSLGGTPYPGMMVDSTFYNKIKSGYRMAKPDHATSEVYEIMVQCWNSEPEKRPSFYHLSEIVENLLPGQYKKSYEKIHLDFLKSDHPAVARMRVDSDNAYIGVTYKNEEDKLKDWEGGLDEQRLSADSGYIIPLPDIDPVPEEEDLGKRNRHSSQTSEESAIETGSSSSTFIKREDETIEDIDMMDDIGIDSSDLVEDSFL

B1: PDGF-CC: recombinant human PDGF-CC core domain homodimer, residues 230-345 of full-length PDGF-C (SEQ ID NO:40), produced in baculovirus infected insect cells (protein)
chain: GRKSRVVDLNLLTEEVRLYSCTPRNFSVSIREELKRTDTIFWPGCLLVKRCGGNCACCLHNCNECQCVPSKVTKKYHEVLQLRPKTGVRGLHKSLTDVALEHHEECDCVCRGSTGG
modifications: homodimer; PDGF-C core domain
SMA positive cells ([1]; four weeks): > 95% | expression of CD144 and CD31 ([1]; four weeks): lost their expression | adherence of AC133+CD34+ cells ([1]; two weeks of stimulation): enhanced | expression of EC surface markers CD144 (VE-cadherin) and CD31 (PECAM) ([1]; two weeks of stimulation): induced | expression of smooth muscle cell marker SMA ([1]; two weeks of stimulation): induced | TM-positive vessel density (ischemic myocardium; 1.5 μg/day, minipump, seven days): minimally affected | SMA positive vessels (ischemic myocardium; 1.5 μg/day, minipump, seven days, ischemic area): 53.1±3.7 vessels/mm^2 | increase in number of SMA-positive arterioles (ischemic myocardium; 1.5 μg/day, minipump, seven days, vs saline): 1.36 fold | angiogenesis (TM-positive vessels in ischemic area) (ischemic myocardium; [2]): significantly stimulated | arteriogenesis (SMA-positive arterioles in ischemic area) (ischemic myocardium; [2]): significantly stimulated | blood flow (perfusion of the ischemic myocardial region) (ischemic myocardium; 4.5 μg/day, n=7-9): 2.2 ± 0.2 mL/min/g | hemorrhage, edema or fibrosis in treated hearts (ischemic myocardium; minipump, seven days): No signs of hemorrhage, edema or fibrosis | tolerability (weight loss, inactivity) (ischemic myocardium; minipump, seven days): no signs of toxicity | vessel density in other organs (ischemic myocardium; non-ischemic organs): no differences | amount of active PDGFR-α in the border region (PDGFR-α): increased
